According to patent US20120065365A1, “Stable Radiopharmaceutical Compositions and Methods for Their Preparation” (BRACCO IMAGING S.P.A., priority 2003, published 2012):
Where two headings read alike, the source gives them in different places. Blank lines part the entries; values can stand above or below the compound they belong to.

Experiments:
[1] = format: physicochemical
Method: The ratio of COMPOUND A to Lutetium was 3:1 for all samples. The reaction mixtures were heated, cooled, treated with Na2EDTA.2H2O and analyzed by HPLC as described in Example 13, and then stored at room temperature for 24 hours, at which time all samples were analyzed again.

[2] = format: physicochemical; remark: listed apart in the source
Method: (§1) The injection volume was 20 μL.
Ethionamide was prepared at a 10 mg/mL concentration by dissolving it in EtOH. […] Another sample was prepared to which was added 100 μL of ethanol only (no stabilizer), for use as a control sample. […] The reaction mixture was heated to 100° C. for 5 minutes then cooled for 5 minutes in an ambient-temperature water bath. To each sample, 10 μL of 2% Na2EDTA.2H2O in water was added, and then each was analysed by HPLC (Method 2) and stored at room temperature for up to 96 hours.

[3] = format: physicochemical; conditions: ^177Lu-A 13.9 mCi/mL, stabilizer 5 mg/mL added after complex preparation, room temperature
Method: as §1
Compounds containing the —C═S moiety [dithiocarbamates and ethionamide] were examined in this study.
Each individual stabilizer was prepared at a concentration of 10 mg/mL in water. Ethionamide was dissolved in EtOH. […] The reaction mixture was heated to 100° C. for 5 minutes, then cooled for 5 minutes in an ambient-temperature water bath. […] To an aliquot, 100 μL of one of the stabilizer solutions (1 mg of stabilizer) was added. Each aliquot was analyzed (t=0 h) by HPLC (Method 2) and stored at room temperature for 48 hours. All samples were analyzed again at t=24 h and 48 h.

[4] = Stability in Radiolysis Protecting Solution containing methionine (FIG. 4 and similar study); format: physicochemical; conditions: 104 mCi, diluted 1:1 with radiolysis protecting solution (2 mg/mL DL-methionine) added after complex formation, room temperature
Method: Formulations stabilized by such cocktails maintained excellent radiochemical purity (RCP) values (>95% RCP) for as long as 5 days at room temperature. This stabilizing cocktail is added immediately after formation of the radioactive complex, so would be the second vial of a two-vial kit.

[5] = format: physicochemical; remark: listed apart in the source
Method: The reaction vial was crimp-sealed and heated at 100° C. for 10 min. […] The sample was stored in an autosampler in which the temperature is ˜6° C. […] than room temperature, and analyzed by RP-HPLC for up to 120 hours.

[6] = format: physicochemical; conditions: 50 mCi/2 mL in Radiolysis Protecting Solution containing L-methionine, room temperature
Method: as §1
A Radiolysis Protecting Solution was prepared to contain 10 mg/mL gentisic acid; 50 mg/mL ascorbic acid sodium salt; 2 mg/mL HSA; 2.98 mg/mL L-methionine, 0.9% (v:v) benzyl alcohol and 1 mg/mL of Na2EDTA.2H2O in 0.05 M, pH 5.3 citrate buffer. […] The mixture was incubated at 100° C. for 5 min, and then cooled to room temperature with a water bath. A 1-mL aliquot of the Radiolysis Protecting Solution was immediately added. The reaction vial was stored in an autosampler chamber and the stability was analyzed by Reversed Phase HPLC over time, using HPLC Methods 3 and 4. The results obtained for ^177Lu-B are shown in the chromatograms in FIG. 9.

[7] = format: physicochemical; conditions: Radiolysis Protecting Solution containing L-selenomethionine, room temperature
Method: ^177Lu-A and ^177Lu-B were prepared at a 50 mCi level as described in EXAMPLE 4. Immediately after cooling the reaction mixtures to room temperature, 1 mL of a Radiolysis Protecting solution was added, containing 10 mg/mL gentisic acid; 50 mg/mL ascorbic acid sodium salt; 2 mg/mL HSA; 3.92 mg/mL L-selenomethionine, 0.9% (v:v) benzyl alcohol and 1 mg/mL of Na2EDTA.2H2O in 0.05 M, pH 5.3 citrate buffer. The reaction vials were stored in the autosampler chamber and the stability was analysed by RP-HPLC over time using HPLC Methods 3 [^177Lu-A] or 4 [^177Lu-B].

RCP % t = 0 h ([1]; ^177Lu-A (4.65-5.64 mCi) prepared in presence of stabilizer 5 mg/mL, 0 h): 80.8%
RCP % t = 24 h ([1]; ^177Lu-A prepared in presence of stabilizer 5 mg/mL, room temperature, 24 h): 77.5%
RCP % t = 0 h ([2]; ^177Lu-A (5.25 mCi avg) prepared in presence of stabilizer ~3.33 mg/mL, 0 h): 100%
RCP % t = 24 h ([2]; ^177Lu-A prepared in presence of stabilizer ~3.33 mg/mL, room temperature, 24 h): 98.1%
RCP % t = 96 h ([2]; ^177Lu-A prepared in presence of stabilizer ~3.33 mg/mL, room temperature, 96 h): 94.6%
RCP % t = 0 h ([3]; 0 h): 97.4%
RCP % t = 24 h ([3]; 24 h): 97.0%
RCP % t = 48 h ([3]; 48 h): 94.7%
Compound: CCc1cc(C(N)=S)ccn1 [Ethionamide, 2-Ethyl-4-pyridinecarbothioamide (Ethionamide), reference compound]

Compound: ^177Lu-B: the ^177Lu complex of DOTA-Gly-Abz4-Gln-Trp-Ala-Val-Gly-His-Leu-Met-NH2
RCP for 5 days [4]: > 99%
RCP (%) ([5]; 110.5 mCi, prepared with L-selenomethionine 2.94 mg/mL, then 4 mL saline with sodium ascorbate 50 mg/mL and benzyl alcohol, 0 hours post-reconstitution): 99.5%
RCP (%) ([5]; L-selenomethionine 2.94 mg/mL plus ascorbate/benzyl alcohol saline, 120 (5 days) hours post-reconstitution): 99.8%
RCP (%) ([5]; L-selenomethionine 2.94 mg/mL plus ascorbate/benzyl alcohol saline, 2 hours post-reconstitution): 99.6%
RCP (%) ([5]; L-selenomethionine 2.94 mg/mL plus ascorbate/benzyl alcohol saline, 3 hours post-reconstitution): 99.5%
RCP (%) ([5]; L-selenomethionine 2.94 mg/mL plus ascorbate/benzyl alcohol saline, 6 hours post-reconstitution): 99.0%
RCP (%) ([5]; L-selenomethionine 2.94 mg/mL plus ascorbate/benzyl alcohol saline, 9 hours post-reconstitution): 99.4%
RCP (%) ([5]; L-selenomethionine 2.94 mg/mL plus ascorbate/benzyl alcohol saline, 12 hours post-reconstitution): 99.2%
RCP (%) ([5]; L-selenomethionine 2.94 mg/mL plus ascorbate/benzyl alcohol saline, 24 hours post-reconstitution): 99.4%
% RCP 0-d ([6]; 0 d): 99.8%
% RCP 1-d ([6]; 1 d): 99.3%
% RCP 2-d ([6]; 2 d): 99.6%
% RCP 5-d ([6]; 5 d): 99.8%
% RCP 0-d ([7]; 50 mCi level, 0 d): 95.8%
% RCP 1-d ([7]; 1 d): 95.7%
% RCP 2-d ([7]; 2 d): 96.2%
% RCP 3-d ([7]; 3 d): 96.7%
% RCP 5-d ([7]; 5 d): 98.4%
